{
  "source": "paper doi:10.1101/370387",
  "about": "(bioRxiv, 2018)",
  "key": {"cryo-EM structure [1]": {"biological_target": "the molecule itself", "assay": "cryo-EM structure"}, "cryo-EM structure [2]": {"biological_target": "the molecule itself", "assay": "cryo-EM structure", "remark": "listed apart in the source"}},
  "note": "Where two headings read alike, the source gives them in different places. No end group written: not given here.",
  "data": [
    {"protein": "phospholamban Asn27-Ala mutant (canine PLN sequence), super-inhibitory pentameric form (natural protein, UniProt P61012 1-52, looked up, cysteine pairing not given here; also: pentameric form) MDKVQYLTRSAIRRASTIEMPQQARQALQNLFINFCLILICLLLICIIVMLL", "values": [
      {"measurement": "stoichiometry N", "setting": "cryo-EM structure [1]", "result": 4}
    ]},
    {"protein": "phospholamban Lys27-Ala mutant (human PLN sequence), super-inhibitory pentameric form (natural protein, UniProt P26678 1-52, looked up, cysteine pairing not given here; also: pentameric form) MEKVQYLTRSAIRRASTIEMPQQARQALQNLFINFCLILICLLLICIIVMLL", "values": [
      {"measurement": "stoichiometry N", "setting": "cryo-EM structure [2]", "result": 5}
    ]}
  ]
}
